Reference: PMC5330279

Tests used:
[1] = molecular target: hCRBPII E72A (human)
[2] = molecular target: hCRBPII Q108K:K40L:Y60W (human); test: SEC

Substance | percent dimer [1] [%] | stoichiometry N [2]
hCRBPII E72A (natural protein) | 50 | –
hCRBPII Q108K:K40L:Y60W (natural protein) | – | 2
